Assay results published in the supplement of paper PMC12764529.
± gives the half width of the 95% confidence interval.

Columns and labels:
[1] = folding stability dG unfold (combined trypsin and chymotrypsin); higher = more stable
Method in brief: (§1)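 Mini-proteins designed to be under 80 residues and free of cysteine were carried in a PA-tagged cDNA display construct and digested with trypsin and with chymotrypsin. Each protease was applied at 11 threefold-diluted concentrations, alongside a no-protease condition, before sequencing. K50 came from Bayesian fitting of the sequencing counts, and unfolding free energy was obtained by comparing it with a sequence-predicted unfolded-state K50 and a shared folded-state K50, for each protease separately or for both together. Designs were retained only if their AlphaFold2 dimer inter-PAE exceeded 15.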

[2] = folding stability dG unfold from chymotrypsin proteolysis; higher = more stable
Method in brief: as §1

[3] = folding stability dG unfold from trypsin proteolysis; higher = more stable
Method in brief: as §1

Row | Sequence | folding stability dG unfold [1] | folding stability dG unfold [2] | folding stability dG unfold [3]
1 | SAGGSASIEIPVGDKPVRIEILSLEPEGERVRARAVVYFPDDPEYREISGDLTLEELIDAILEAIGSAGGSA [r15_944_TrMRF] | 1.21 ± 0.074 kcal/mol | 1.148 ± 0.011 kcal/mol | 1.3 ± 0.016 kcal/mol
2 | SAGGSASIGEELAKELFPDLPLKVEPKEVPLEDGKTETVVTATFPDGKKVTITFEGDKIVEVTEVESAGGSA [r15_417_JUSTAS] | 0.718 ± 0.11 kcal/mol | 0.994 ± 0.074 kcal/mol | 0.445 ± 0.095 kcal/mol
3 | SAGGSASLEEVIESVTKPLGAKGEIDPETGVTYVQDPSGENLTLETEDGRPLKVTYEPEGKWTAVESAGGSA [r15_256_JUSTAS] | 0.24 ± 0.28 kcal/mol | -0.199 ± 0.45 kcal/mol | 0.301 ± 0.046 kcal/mol
4 | SAGGSASLQTSTASVSPGALEKAIEAAKAAPPGTAVSVSFGDPVVGTPRPVTLTVDSAGNLVEITGSAGGSA [r15_228_JUSTAS] | 0.188 ± 0.097 kcal/mol | 0.0446 ± 0.08 kcal/mol | 0.376 ± 0.029 kcal/mol
5 | SAGGSASMGVSVAAIAEALDAARPAGAPPLVYVKLPNGEVVRVSPDESLTSISPEGEVEIEIRFLPSAGGSA [r15_50_JUSTAS] | 0.878 ± 0.04 kcal/mol | 0.81 ± 0.022 kcal/mol | 0.907 ± 0.018 kcal/mol
6 | SAGGSASMIFADDPAQAEAYVKPLFPNGPPFDIVELSEEEGKELVEKLKKEGKPYKVIVIKDPSKPSAGGSA [r15_567_JUSTAS] | 0.341 ± 0.3 kcal/mol | 0.507 ± 0.42 kcal/mol | 0.192 ± 0.19 kcal/mol
7 | SAGGSASMSNVTSYVTVYKKPGVDDLYYKVRILAPSEPKVIEIPESEIPKYEKEGIKIEKVSEELLSAGGSA [r15_783_JUSTAS] | 1.28 ± 0.34 kcal/mol | 1.96 ± 0.32 kcal/mol | 0.901 ± 0.36 kcal/mol
8 | SAGGSASPVLTTVTFPGSPEELEAYAAEVRAAGTLLSVSFSPSPDPSYYTITLQVRAPDGTYFTAESAGGSA [r15_177_JUSTAS] | 1.39 ± 0.061 kcal/mol | 1.55 ± 0.083 kcal/mol | 1.14 ± 0.03 kcal/mol
9 | SAGGSASSMTTTKKLSTGEKSVVELSTSPSTVTLVTTDPETGTVTVTTYTPSGTGPVATTTTVPAPSAGGSA [r15_137_JUSTAS] | 0.177 ± 0.097 kcal/mol | 0.499 ± 0.14 kcal/mol | -0.431 ± 0.13 kcal/mol
10 | SAGGSASTYEPEVYTFTGKNKKIKVIVVKPKDNPTAKIIVYDENGNVLATIEFPAENVEKALKELASAGGSA [r15_940_TrMRF] | 2.1 ± 0.083 kcal/mol | 2.12 ± 0.064 kcal/mol | 2.02 ± 0.029 kcal/mol
11 | SAGGSASVKVEITEIKSSNPESSSNKIDIPVKVYDPETGKEVLSVEEIAKKIEEENPGKPVGYVPESAGGSA [r2_27_JUSTAS] | 0.281 ± 0.17 kcal/mol | 0.0963 ± 0.17 kcal/mol | 0.293 ± 0.093 kcal/mol
12 | SAGGSASVLEEAIEEAKKLPPGSVVPLTVTVPTDGEPVVYEILITVHPGENTIEVEKKRKFSPERLSAGGSA [r15_724_JUSTAS] | 0.439 ± 0.095 kcal/mol | 0.779 ± 0.1 kcal/mol | -0.411 ± 0.14 kcal/mol
13 | SAGGSASVSDVTTTTVTVTVEVTEDPATGLQRLTATHPDLSFERLVPAGTIPADTTVTLDVTVTTGSAGGSA [r15_190_JUSTAS] | 0.322 ± 0.046 kcal/mol | 0.452 ± 0.014 kcal/mol | 0.0934 ± 0.028 kcal/mol
14 | SAGGSASVVLPNATVEELKEAVEKGAKEIVVVSPDPARAATIKAEIEKLHDTPVKVLTPEEAAALESAGGSA [r15_243_JUSTAS] | 0.907 ± 0.055 kcal/mol | 1.32 ± 0.035 kcal/mol | -0.205 ± 0.037 kcal/mol
15 | SAGGSATIEEIAQEIADNLPPGRKYRAKIYYDGEERTYEFRNPNGFKINITWKNGKIRSIDIEPRPSAGGSA [r15_175_TrROS] | 1.94 ± 0.17 kcal/mol | 2.01 ± 0.16 kcal/mol | 1.63 ± 0.046 kcal/mol
16 | SAGGSATKELVLEIAEEIAPRFQKEGWPIKRVTVKVVRTPDGQVTIPVRIRFPDGKPIMQWNITIPSAGGSA [r15_232_TrROS] | 0.779 ± 0.17 kcal/mol | 0.00828 ± 0.36 kcal/mol | 1.03 ± 0.055 kcal/mol
17 | SAGGSATKVIYGMSVEEIRAAIKAGAKKIIIVADTEEQKKAAAEELEKEYNIKIEVKKIKPKKKKKSAGGSA [r15_243_TrROS_Hall] | 1.89 ± 0.17 kcal/mol | 2.22 ± 0.039 kcal/mol | 0.83 ± 0.065 kcal/mol
18 | SAGGSATPEEIAKKFFENHPELEPVEVKLEKFKIPGLKIWVVKVEITLKFKDNSKKKIPVVAVFPVSAGGSA [r15_266_TrMRF] | 2.72 ± 0.074 kcal/mol | 3.01 ± 0.039 kcal/mol | 2.02 ± 0.066 kcal/mol
19 | SAGGSATVTVTLVVRDPATGELTTVTATVTLEAAPAPVSVSLSLSLSRDPNGNLSLSLSVSVTVEGSAGGSA [r2_326_TrROS_Hall] | > 6 kcal/mol | 5.93 ± 0.13 kcal/mol | 4.02 ± 0.094 kcal/mol
20 | SAGGSAVEFTEPGAELLSEEKLPDGTVVKRVLLPDGSVLLLLPDNSIKTRSLSNPNTSLSEWDPELSAGGSA [r15_692_JUSTAS] | 0.491 ± 0.26 kcal/mol | 0.332 ± 0.32 kcal/mol | 0.613 ± 0.17 kcal/mol
21 | SAGGSAVRIKVWPPNGKEQWIPIPSSMTPSTVQEMAENLADDWQEQNGNKNVKVEVDPDNGWIRIRSAGGSA [r15_33_TrROS] | -0.0158 ± 0.066 kcal/mol | 0.197 ± 0.084 kcal/mol | -1.02 ± 0.3 kcal/mol

Row | Sequence | folding stability dG unfold [1] | folding stability dG unfold [2] | folding stability dG unfold [3]
22 | SAGGSAVTITVDDFEDIEDAEITLTRPDGRPVVARVRVEKGEGAPRVTVLWREPGSGRYRVETFPLSAGGSA [r15_1006_TrMRF] | 1.28 ± 0.07 kcal/mol | 1.49 ± 0.1 kcal/mol | 0.925 ± 0.074 kcal/mol
23 | SAGGSAWIRINSPEMVEAFAKELKDEGWKLKDVDVQRDPNNGNVWFEIPIEHPNNGKKRELEIWFRSAGGSA [r15_123_TrROS] | 0.141 ± 0.11 kcal/mol | -0.0873 ± 0.2 kcal/mol | 0.368 ± 0.077 kcal/mol
24 | SAGGSAWIWITYQFPPGGTLEQAKEQIVNYLQRLFGWKIEIPDIEVEREGNNWTVTFPIKIEPLPGSAGGSA [r15_105_TrROS] | 4.18 ± 0.24 kcal/mol | 4.4 ± 0.098 kcal/mol | 3.7 ± 0.16 kcal/mol
25 | SAGGSDKEEKEKEIDIRIVQVPWDDARELAEESDDPVIFMLPDGHIHIFKGDGKVEPFPIPDPEEFSAGGSA [r2_34_TrROS] | 0.0224 ± 0.12 kcal/mol | 0.199 ± 0.15 kcal/mol | -0.288 ± 0.071 kcal/mol
26 | SAGGSDVEIEVFENAIIITIPLDLDNGKGETVEVRIIAPFTPDGRPIFRIEVINPDSDEVVTFTFPSAGGSA [r2_484_TrMRF] | 2.71 ± 0.068 kcal/mol | 2.766 ± 0.017 kcal/mol | 2.66 ± 0.081 kcal/mol
27 | SAGGSDYYIRVRIRIYKPTPEDMQEGKPIPEVEIWFPFDSVEEIKEFLENLPPNIKVDVDWFPPEDSAGGSA [r2_25_TrROS] | 3.89 ± 0.14 kcal/mol | 4.21 ± 0.11 kcal/mol | 3.35 ± 0.073 kcal/mol
28 | SAGGSEAIKEALELAKENPGKTVEVEIKNEDGSIYKIKIEVKEGKVVKVEVEKVKKEEVLSEEEKKSAGGSA [r2_263_TrROS_Hall] | 2.12 ± 0.1 kcal/mol | 2.49 ± 0.043 kcal/mol | 1.01 ± 0.1 kcal/mol
29 | SAGGSEALTKNLPGVKEIKIEVEPTEVALSPELAKLLPNLPGVKFTVPSVKIDIKIEYPGTPDGTLSAGGSA [r2_404_TrMRF] | -0.053 ± 0.15 kcal/mol | -0.659 ± 0.37 kcal/mol | 0.133 ± 0.088 kcal/mol
30 | SAGGSEDRYLVHVLVRFPDELRELYLEARSPEEVERSVRRAIEELYPERLEDVEVVVFARPVSEPLSAGGSA [r2_111_TrMRF] | 2.14 ± 0.061 kcal/mol | 1.91 ± 0.081 kcal/mol | 2.38 ± 0.038 kcal/mol
31 | SAGGSEEEIKKKIEEIAKKRGTKIKSITIKKLPDGSLLATVTLEDNPNTTIEFKVEKNKVEITKINKSAGGS [r8_432_JUSTAS] | 2.61 ± 0.066 kcal/mol | 2.93 ± 0.051 kcal/mol | 1.73 ± 0.068 kcal/mol
32 | SAGGSEEKVFEFEVVEVTSVEVKEDGTVTIEVTVRLENGLLLTVRVTFDLATNEVTIEVELRPLPESAGGSA [r2_321_TrROS_Hall] | 4.41 ± 0.2 kcal/mol | 4.49 ± 0.19 kcal/mol | 3.38 ± 0.35 kcal/mol
33 | SAGGSEEVEEEPPVVVTVRLTIELTLADGSKVRVEVELVRTADGRLLLKIRVVNEDTGEVYEFTFPSAGGSA [r2_484_TrROS_Hall] | 4.6 ± 0.19 kcal/mol | 4.86 ± 0.23 kcal/mol | 3.31 ± 0.24 kcal/mol
34 | SAGGSEFIPVVAEFPEDVTPEDVARAVRELERAGFVVERVEVERFPDPDGRERYRVRVVLRRPEELSAGGSA [r2_442_TrMRF] | 3.732 ± 0.035 kcal/mol | 3.841 ± 0.0097 kcal/mol | 3.53 ± 0.081 kcal/mol
35 | SAGGSEKIEVEVERREDGYLVLRVRLELFDENGELVEEIEIEVVLPREELEKMSLEELLKRLLEELSAGGSA [r2_421_TrROS_Hall] | 5.08 ± 0.67 kcal/mol | 5.25 ± 0.38 kcal/mol | 3.99 ± 0.17 kcal/mol
36 | SAGGSEKVKIEIPFRHPEDGEPIFPVRIEYEKPPNGDYKLDIEIDNFPPGMKPSPAAKDAIEEFIKSAGGSA [r2_7_TrROS] | 0.956 ± 0.19 kcal/mol | 1.29 ± 0.052 kcal/mol | 0.588 ± 0.07 kcal/mol
37 | SAGGSEKVTIELEFRNPETGELIATVKIELERLPNGEIKAKIEFTNLPEGVELSEEMKKLLEELLKSAGGSA [r2_7_TrROS_Hall] | 2.77 ± 0.34 kcal/mol | 2.93 ± 0.19 kcal/mol | 2.5 ± 0.31 kcal/mol
38 | SAGGSELKPGDLVEVKVTVEFDEETGKATVEVEFNGKKLTVEVELEENQPPTVEVTLLVRIDKIEPSAGGSA [r2_113_TrROS_Hall] | 2.46 ± 0.15 kcal/mol | 2.48 ± 0.1 kcal/mol | 2.36 ± 0.17 kcal/mol
39 | SAGGSEPPKIKKIKDINVKHERHNDRPYWEVKIRIKLKNGNTAEIDIEMPGMPPEEAREQIKDILKSAGGSA [r2_26_TrROS] | 0.938 ± 0.36 kcal/mol | 0.872 ± 0.089 kcal/mol | 0.391 ± 0.15 kcal/mol
40 | SAGGSERTIMIPVEPGMSPEQIADEIKAILRELGPGRPIEIDDVHPGGWVKIKINNKPIKIHIMWPSAGGSA [r2_102_TrROS] | 1.32 ± 0.1 kcal/mol | 1.3 ± 0.081 kcal/mol | 1.31 ± 0.038 kcal/mol
41 | SAGGSETVEIELGSEDGTVYKIEIERFPETGLLLIKVDGPDPKVIEKVVKELGVDVVEVLEDGYVLLASAGG [r13_937_TrMRF] | 1.78 ± 0.065 kcal/mol | 1.89 ± 0.05 kcal/mol | 1.45 ± 0.059 kcal/mol
42 | SAGGSEVVLEAEGVDPATGKPYTVRVVYDKETGVPVVEVRDADGTLLAVIPVPPDKALEALKELGVSAGGSA [r2_115_TrMRF] | 2.99 ± 0.067 kcal/mol | 3.046 ± 0.013 kcal/mol | 2.92 ± 0.08 kcal/mol
